From publication PMC8967061, “Mechanism of Borrelia immune evasion by FhbA-related proteins” (PLoS Pathogens, 2022) come the findings set out here.

Sequences and labels used below:
T1: BhFhbA Phe181Ala (Borrelia hermsii YOR, UniProt W5SB08 44-202, Phe181Ala)
T1 construct: FhbA of Borrelia hermsii strain YOR, residues 44-202 as the wild type construct, single alanine mutant; also called #9; source: E. coli BL21 (DE), purified (Ni-NTA, size-exclusion chromatography)
T1 sequence (looked up): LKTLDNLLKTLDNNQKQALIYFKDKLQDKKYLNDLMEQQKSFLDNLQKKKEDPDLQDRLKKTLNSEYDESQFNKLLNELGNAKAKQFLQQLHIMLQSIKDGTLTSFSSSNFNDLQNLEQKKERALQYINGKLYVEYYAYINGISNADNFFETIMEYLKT

T2: BhFhbA Glu198Ala (Borrelia hermsii YOR, UniProt W5SB08 44-202, Glu198Ala)
T2 construct: FhbA of Borrelia hermsii strain YOR, residues 44-202 as the wild type construct, single alanine mutant; also called #10; source: E. coli BL21 (DE), purified (Ni-NTA, size-exclusion chromatography)
T2 sequence (looked up): T1 sequence (looked up) with A138F, E155A

T3: BhFhbA Phe85Ala (Borrelia hermsii YOR, UniProt W5SB08 44-202, Phe85Ala)
T3 construct: FhbA of Borrelia hermsii strain YOR, residues 44-202 as the wild type construct, single alanine mutant; also called #1; source: E. coli BL21 (DE), purified (Ni-NTA, size-exclusion chromatography)
T3 sequence (looked up): T1 sequence (looked up) with F42A, A138F

T4: BhFhbA Asn88Ala (Borrelia hermsii YOR, UniProt W5SB08 44-202, Asn88Ala)
T4 construct: FhbA of Borrelia hermsii strain YOR, residues 44-202 as the wild type construct, single alanine mutant; also called #2; source: E. coli BL21 (DE), purified (Ni-NTA, size-exclusion chromatography)
T4 sequence (looked up): T1 sequence (looked up) with N45A, A138F

T5: BhFhbA Lys91Ala (Borrelia hermsii YOR, UniProt W5SB08 44-202, Lys91Ala)
T5 construct: FhbA of Borrelia hermsii strain YOR, residues 44-202 as the wild type construct, single alanine mutant; also called #3; source: E. coli BL21 (DE), purified (Ni-NTA, size-exclusion chromatography)
T5 sequence (looked up): T1 sequence (looked up) with K48A, A138F

T6: BhFhbA Met137Ala (Borrelia hermsii YOR, UniProt W5SB08 44-202, Met137Ala)
T6 construct: FhbA of Borrelia hermsii strain YOR, residues 44-202 as the wild type construct, single alanine mutant; also called #4; source: E. coli BL21 (DE), purified (Ni-NTA, size-exclusion chromatography)
T6 sequence (looked up): T1 sequence (looked up) with M94A, A138F

T7: BhFhbA Asn153Ala (Borrelia hermsii YOR, UniProt W5SB08 44-202, Asn153Ala)
T7 construct: FhbA of Borrelia hermsii strain YOR, residues 44-202 as the wild type construct, single alanine mutant; source: E. coli BL21 (DE), purified (Ni-NTA, size-exclusion chromatography)
T7 sequence (looked up): T1 sequence (looked up) with N110A, A138F

T8: BhFhbA Ile171Ala (Borrelia hermsii YOR, UniProt W5SB08 44-202, Ile171Ala)
T8 construct: FhbA of Borrelia hermsii strain YOR, residues 44-202 as the wild type construct, single alanine mutant; source: E. coli BL21 (DE), purified (Ni-NTA, size-exclusion chromatography)
T8 sequence (looked up): T1 sequence (looked up) with I128A, A138F

T9: BhFhbA Glu178Ala (Borrelia hermsii YOR, UniProt W5SB08 44-202, Glu178Ala)
T9 construct: FhbA of Borrelia hermsii strain YOR, residues 44-202 as the wild type construct, single alanine mutant; source: E. coli BL21 (DE), purified (Ni-NTA, size-exclusion chromatography)
T9 sequence (looked up): T1 sequence (looked up) with E135A, A138F

B1: Factor H binding protein A (FhbA) from Borrelia hermsii, wild type (domain or fragment)
chain: T1 sequence (looked up) with A138F
notes: FhbA of Borrelia hermsii strain YOR, without its leader peptide, residues 44-202; also called BhFhbA; Wild type BhFhbA; source: E. coli BL21 (DE), purified (Ni-NTA, size-exclusion chromatography)
B2: Factor H domains 19-20 (domain or fragment)
chain: DSTGKCGPPPPIDNGDITSFPLSVYAPASSVEYQCQNLYQLEGNKRITCRNGQWSEPPKCLHPCVISREIMENYNIALRWTAKQKLYSRTGESVEFVCKRGYRLSSRSHTLRTTCWDGKLEYPTCAKR
modifications: RED-tris-NTA dye label (in the MST assays only)
notes: human complement factor H, short consensus repeat domains 19-20, wild type; also called FH19-20; FH19-20 fragment

Settings in all cases: both partners purified
Experiment [1] has as its target T10, Factor H, full length (human, UniProt P08603 19-1231, RED-tris-NTA dye label (in the MST assays only)).
T10 construct: human complement factor H, 20 short consensus repeat domains; In the functional assays FH was that of whole blood or serum; also called FH; full-length FH; source: bought: Comptech (Complement Technologies), TX, USA
Description: MST; full-length FH labelled with RED-tris-NTA dye, FhbA proteins titrated, PBS/0.025% Tween-20, 22 C.

Experiment [2] concerns the target B1. Description: MST; FH19-20 labelled with RED-tris-NTA dye (300 nM stock, mixed 1:1 with ligand), FhbA proteins titrated, PBS/0.025% Tween-20, 22 C.
Experiment [3] addresses T1, BhFhbA Phe181Ala. The description is as above.
For experiment [4], the target named is T2, BhFhbA Glu198Ala. Described as above.
For experiment [5], the target named is T3, BhFhbA Phe85Ala. The description is as above.
Experiment [6] deals with T4, BhFhbA Asn88Ala. Described as above.
The target in experiment [7] is T5, BhFhbA Lys91Ala. The description is as above.
Experiment [8] deals with T6, BhFhbA Met137Ala. The experiment is described as above.
The target in experiment [9] is T7, BhFhbA Asn153Ala. The experiment is described as above.
Experiment [10] has as its target T8, BhFhbA Ile171Ala. The description is as above.
Experiment [11] addresses T9, BhFhbA Glu178Ala. The description is as above.

Numbering of substitutions follows the chain as printed.

As a reminder, the Kd is a measure of binding affinity in units of concentration.

With B1, the Kd in [1] was determined as 30 nM.

Consider B2, for which the Kd came to 82 nM in experiment [2]; 33 nM in experiment [3]; 130 nM in [4]; 110 nM in experiment [5]; 110 nM in [6]; 110 nM in [7]. Further, the Kd in experiment [8] worked out at 1000 nM; in experiment [9], 73 nM; in [10], 380 nM; in [11] it was 100 nM.
